Publication PMC6726503
pKd: −log10 of the molar value. Like-named read-outs stand apart in the source and are kept apart here. Each block holds one substance with its values, some of them ahead of it.

Assays:
[1] = target: TGF-β2DM:TβRII binary complex (human) (UniProt P37173); assay: SEC-MALS
human TGF-β2 (human) [2] = assay: SPR
TβRII ECD (Homo sapiens) = TβRII ECD (Homo sapiens) (UniProt P37173); settings: cited from earlier work
human TGF-β2 (human) [3] = assay: SPR; remark: listed apart in the source

Chain of TβRII ECD (Homo sapiens) (P37173 23-166): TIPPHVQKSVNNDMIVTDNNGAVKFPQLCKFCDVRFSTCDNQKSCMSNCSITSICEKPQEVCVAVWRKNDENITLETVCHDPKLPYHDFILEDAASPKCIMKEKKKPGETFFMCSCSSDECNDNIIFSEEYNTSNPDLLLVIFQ

stoichiometry N (BG (O-ZP) per TGF-β2DM dimer) [1]: 1
pKd (human TGF-β2 (human) [2]): 8.31
koff (human TGF-β2 (human) [2]): 0.00173 s⁻¹
kon (human TGF-β2 (human) [2]): 350000 M⁻¹ s⁻¹
Substance: full-length zebrafish betaglycan ectodomain (domain or fragment)

KD1 (heterogeneous-ligand fit, ligand class 1) (human TGF-β2 (human) [2]): 1100 nM
KD2 (heterogeneous-ligand fit, ligand class 2) (human TGF-β2 (human) [2]): 480 nM
ka1 (heterogeneous-ligand fit, ligand class 1) (human TGF-β2 (human) [2]): 480000 M⁻¹ s⁻¹
kd1 (heterogeneous-ligand fit, ligand class 1) (human TGF-β2 (human) [2]): 0.51 s⁻¹
kd2 (heterogeneous-ligand fit, ligand class 2) (human TGF-β2 (human) [2]): 9300 s⁻¹
Substance: zebrafish betaglycan ZP-C domain (domain or fragment)

Substance: TGF-β2 (from UniProt P61812)
pKd (TβRII ECD (Homo sapiens)): 4.70

stoichiometry N (BGO per TGF-β2DM dimer) [1]: 1
pKd (human TGF-β2 (human) [2]): 7.57
koff (human TGF-β2 (human) [2]): 0.0288 s⁻¹
kon (human TGF-β2 (human) [2]): 1.07e+06 M⁻¹ s⁻¹
pKd (human TGF-β2 (human) [3]): 7.82
koff (human TGF-β2 (human) [3]): 0.00772 s⁻¹
kon (human TGF-β2 (human) [3]): 528000 M⁻¹ s⁻¹
Substance: zebrafish betaglycan orphan domain (domain or fragment)
